In publication doi:10.1101/2025.11.24.690281:

Molecular target: GST-tagged intracellular c-terminus of LRP6, in vitro phosphorylated with GSK3 and CK1
Assay: pull-down

fold increase of the interaction against unphosphorylated GST-LRP6: 20 fold
Substance: Strep-tag-Mena-EVH1-CC (domain or fragment)
